{"source": "paper PMC12354883", "target": "5c.c7 TCR on 5c.c7 αβ TCR-transgenic CD4+ T-cells (mouse)", "test": "flow cytometry on cells; time curve: T-cells labeled with AF555-H57-scFV (1800 ng per 1 Mio T-cells), washed, kept on ice, at room temperature or at 37 °C; samples taken after 0, 5, 10, 30, 60 and 120 min"}
{"substance": "fluorescently labeled H57 scFV (J1), TCR β-reactive H57 single-chain fragment", "values": [{"measurement": "time after which 50% of receptor:ligand bonds are still intact, room temperature", "value": "> 3", "unit": "h"}]}
